Laboratory results from the Immune Epitope Database (IEDB).
Values belong to the sequence of their own block, whether it stands above or below them.

Legend:
Assay in all cases: IEDB peptide-MHC binding, purified MHC/competitive/fluorescence; filed as Kd, often an IC50 or EC50 that approximates it; ≥ and ≤ were set here for values at or beyond the usual limits of such assays
[1] = target: HLA-A*26:01
[2] = target: HLA-A*02:03; settings: source organism: Escherichia coli O157:H7 str. Sakai
[3] = target: HLA-A*02:01
[4] = target: HLA-A*02:16; settings: source organism: Escherichia coli O157:H7 str. Sakai
[5] = target: HLA-B*46:01
[6] = target: HLA-A*02:19
[7] = target: HLA-A*02:11; settings: source organism: Escherichia coli O157:H7 str. Sakai
[8] = target: HLA-A*80:01; settings: source organism: Escherichia coli O157:H7 str. Sakai
[9] = target: HLA-B*39:01
[10] = target: HLA-A*68:02
[11] = target: HLA-A*69:01; settings: source organism: Escherichia coli O157:H7 str. Sakai
[12] = target: HLA-B*57:01
[13] = target: HLA-A*24:03
[14] = target: HLA-B*51:01
[15] = target: HLA-A*29:02
[16] = target: HLA-A*23:01
[17] = target: HLA-A*02:12; settings: source organism: Escherichia coli O157:H7 str. Sakai
[18] = target: HLA-B*14:02; settings: source organism: Entamoeba histolytica HM-1:IMSS
[19] = target: HLA-B*15:01; settings: source organism: Entamoeba histolytica HM-1:IMSS
[20] = target: HLA-B*53:01; settings: source organism: Entamoeba histolytica HM-1:IMSS
[21] = target: HLA-A*66:01; settings: source organism: Entamoeba histolytica HM-1:IMSS
[22] = target: HLA-B*18:01; settings: source organism: Entamoeba histolytica HM-1:IMSS
[23] = target: HLA-A*30:02; settings: source organism: Entamoeba histolytica HM-1:IMSS
[24] = target: HLA-B*27:05; settings: source organism: Entamoeba histolytica HM-1:IMSS
[25] = target: HLA-B*15:17; settings: source organism: Entamoeba histolytica HM-1:IMSS
[26] = target: HLA-A*01:01; settings: source organism: Entamoeba histolytica HM-1:IMSS
[27] = target: HLA-B*27:03; settings: source organism: Entamoeba histolytica HM-1:IMSS
[28] = target: HLA-A*03:01; settings: source organism: Entamoeba histolytica HM-1:IMSS
[29] = target: HLA-B*08:01; settings: source organism: Entamoeba histolytica HM-1:IMSS
[30] = target: HLA-A*30:01; settings: source organism: Entamoeba histolytica HM-1:IMSS
[31] = target: HLA-A*11:01; settings: source organism: Entamoeba histolytica HM-1:IMSS
[32] = target: HLA-B*58:01; settings: source organism: Entamoeba histolytica HM-1:IMSS
[33] = target: HLA-B*44:02; settings: source organism: Entamoeba histolytica HM-1:IMSS
[34] = target: HLA-B*40:01; settings: source organism: Entamoeba histolytica HM-1:IMSS
[35] = source organism: Escherichia coli O157:H7 str. Sakai
[36] = source organism: Entamoeba histolytica HM-1:IMSS

- Kd [1, 35]: ≥ 20 µM
- Kd [2]: ≥ 20 µM
- Kd [3, 35]: ≥ 20 µM
- Kd [4]: ≥ 20 µM
- Kd [5, 35]: ≥ 20 µM
- Kd [6, 35]: ≥ 20 µM
- Kd [7]: ≥ 20 µM
- Kd [8]: 0.0072 µM
- Kd [9, 35]: ≥ 20 µM
- Kd [10, 35]: ≥ 20 µM
- Kd [11]: ≥ 20 µM
- Kd [12, 35]: ≥ 20 µM
- Kd [13, 35]: ≥ 20 µM
- Kd [14, 35]: ≥ 20 µM
- Kd [15, 35]: 0.0016 µM
- Kd [16, 35]: ≥ 20 µM
- Kd [17]: ≥ 20 µM
Sequence: HQIWLALRY

Sequence: NPAACSYMV
- Kd [18]: ≥ 5 µM
- Kd [19]: ≥ 20 µM
- Kd [20]: ≥ 5 µM
- Kd [21]: ≥ 5 µM
- Kd [1, 36]: ≥ 20 µM
- Kd [3, 36]: ≥ 20 µM
- Kd [22]: ≥ 20 µM
- Kd [23]: ≥ 5 µM
- Kd [24]: ≥ 5 µM
- Kd [5, 36]: ≥ 20 µM
- Kd [25]: ≥ 20 µM
- Kd [6, 36]: ≥ 20 µM
- Kd [26]: ≥ 5 µM
- Kd [27]: ≥ 20 µM
- Kd [28]: ≥ 20 µM
- Kd [9, 36]: 0.232 µM
- Kd [29]: ≥ 5 µM
- Kd [10, 36]: 0.0283 µM
- Kd [30]: ≥ 5 µM
- Kd [12, 36]: ≥ 20 µM
- Kd [31]: ≥ 5 µM
- Kd [32]: ≥ 5 µM
- Kd [13, 36]: ≥ 20 µM
- Kd [14, 36]: ≥ 20 µM
- Kd [15, 36]: 0.122 µM
- Kd [33]: ≥ 5 µM
- Kd [16, 36]: ≥ 20 µM
- Kd [34]: ≥ 5 µM
